Patent US12723078 (University of Texas, dated 2026)

Columns and labels:
LILRB4 = target: T1, LILRB4 (human, UniProt Q8NHJ6); assay: ELISA
T1 construct: not the cell-surface form of MOLECULES; also called LILRB4 protein of the ELISA and Octet specificity tests

LILRA3 = target: T2, LILRA3 (human, UniProt Q8N6C8); assay: ELISA
T2 construct: not the cell-surface form of MOLECULES; also called LILRA3 protein of the ELISA and Octet specificity tests

LILRA4 on reporter cells = target: T3, LILRA4 on reporter cells (UniProt P59901 24-499); assay: flow cytometry on 2B4 cells expressing the LILR, PE
T3 construct: whole, on cells
T3 sequence (P59901 24-499): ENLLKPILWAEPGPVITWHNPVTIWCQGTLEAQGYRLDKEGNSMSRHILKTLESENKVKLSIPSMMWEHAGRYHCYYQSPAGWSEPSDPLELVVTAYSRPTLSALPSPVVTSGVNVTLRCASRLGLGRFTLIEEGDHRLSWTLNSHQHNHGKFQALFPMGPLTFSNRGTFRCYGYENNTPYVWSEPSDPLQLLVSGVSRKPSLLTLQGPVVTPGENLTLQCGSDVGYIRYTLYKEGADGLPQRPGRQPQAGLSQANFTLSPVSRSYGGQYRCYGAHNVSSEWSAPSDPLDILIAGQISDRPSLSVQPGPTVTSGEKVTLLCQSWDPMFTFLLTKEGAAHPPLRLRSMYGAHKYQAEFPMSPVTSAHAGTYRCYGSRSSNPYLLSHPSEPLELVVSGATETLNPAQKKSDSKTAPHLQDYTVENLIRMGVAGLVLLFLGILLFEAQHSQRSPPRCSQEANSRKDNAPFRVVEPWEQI

LILRA1 on reporter cells = target: T4, LILRA1 on reporter cells (UniProt O75019 17-489, limits assumed); assay: as above
T4 construct: whole, on cells
T4 sequence (O75019 17-489 limits assumed): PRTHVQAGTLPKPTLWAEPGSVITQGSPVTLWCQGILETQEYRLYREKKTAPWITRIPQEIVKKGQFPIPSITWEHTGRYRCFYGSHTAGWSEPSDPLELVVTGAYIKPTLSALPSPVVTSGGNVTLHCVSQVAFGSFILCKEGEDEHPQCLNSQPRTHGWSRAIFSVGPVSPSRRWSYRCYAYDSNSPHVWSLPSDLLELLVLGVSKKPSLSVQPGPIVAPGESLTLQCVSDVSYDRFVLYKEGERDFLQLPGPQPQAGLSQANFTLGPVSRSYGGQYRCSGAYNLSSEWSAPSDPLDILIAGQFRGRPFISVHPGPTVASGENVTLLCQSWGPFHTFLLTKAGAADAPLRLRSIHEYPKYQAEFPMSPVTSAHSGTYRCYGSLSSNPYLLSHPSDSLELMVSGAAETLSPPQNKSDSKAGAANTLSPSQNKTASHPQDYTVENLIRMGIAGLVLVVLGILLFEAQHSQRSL

[1] = target: T5, LILRB1 expressed on cell surface (human, UniProt Q8NHL6 24-650); assay: as above
T5 construct: One entry is used for LILRB1 on reporter cells and on NK cells; also called LILRB1 NFAT-GFP reporter cell; LILRB1 reporter cells
T5 sequence (Q8NHL6 24-650 limits assumed): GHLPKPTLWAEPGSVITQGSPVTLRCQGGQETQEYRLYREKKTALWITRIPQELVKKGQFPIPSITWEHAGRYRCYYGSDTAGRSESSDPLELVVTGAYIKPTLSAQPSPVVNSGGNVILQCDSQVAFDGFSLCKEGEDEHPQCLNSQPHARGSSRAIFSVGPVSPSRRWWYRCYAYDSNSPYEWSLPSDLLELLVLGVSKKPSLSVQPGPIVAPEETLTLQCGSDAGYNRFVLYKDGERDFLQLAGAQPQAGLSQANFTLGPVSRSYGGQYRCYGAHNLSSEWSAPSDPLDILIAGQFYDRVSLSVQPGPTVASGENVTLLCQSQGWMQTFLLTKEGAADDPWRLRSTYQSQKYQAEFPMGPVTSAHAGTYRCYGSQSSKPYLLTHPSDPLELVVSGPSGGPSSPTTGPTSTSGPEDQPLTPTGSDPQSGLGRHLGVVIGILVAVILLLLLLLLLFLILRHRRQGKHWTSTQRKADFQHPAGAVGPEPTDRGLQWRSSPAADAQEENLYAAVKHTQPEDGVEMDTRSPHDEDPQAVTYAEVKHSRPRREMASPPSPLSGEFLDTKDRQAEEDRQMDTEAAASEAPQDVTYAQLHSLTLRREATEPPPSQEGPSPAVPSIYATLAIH

LILRB5 on reporter cells = target: T6, LILRB5 on reporter cells (UniProt O75023 24-590, limits assumed); assay: as above
T6 construct: whole, on cells
T6 sequence (O75023 24-590 limits assumed): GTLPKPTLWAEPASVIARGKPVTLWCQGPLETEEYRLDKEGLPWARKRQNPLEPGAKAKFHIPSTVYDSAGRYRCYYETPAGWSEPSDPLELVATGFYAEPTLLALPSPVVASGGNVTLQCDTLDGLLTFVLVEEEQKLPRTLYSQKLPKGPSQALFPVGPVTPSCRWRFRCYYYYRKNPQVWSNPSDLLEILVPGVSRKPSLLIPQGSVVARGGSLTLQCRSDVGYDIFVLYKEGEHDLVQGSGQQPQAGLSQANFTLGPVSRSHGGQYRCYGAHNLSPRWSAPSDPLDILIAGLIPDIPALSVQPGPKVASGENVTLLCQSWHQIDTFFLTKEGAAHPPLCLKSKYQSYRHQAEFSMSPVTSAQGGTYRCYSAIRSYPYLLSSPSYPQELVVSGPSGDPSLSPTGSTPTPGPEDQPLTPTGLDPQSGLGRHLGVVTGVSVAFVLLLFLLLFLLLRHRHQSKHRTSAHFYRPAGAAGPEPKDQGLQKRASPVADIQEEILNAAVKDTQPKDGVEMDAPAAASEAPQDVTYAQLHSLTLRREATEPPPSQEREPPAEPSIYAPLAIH

LILRA2 on reporter cells = target: T7, LILRA2 on reporter cells (UniProt Q8N149 24-483); assay: as above
T7 construct: whole, on cells
T7 sequence (Q8N149 24-483): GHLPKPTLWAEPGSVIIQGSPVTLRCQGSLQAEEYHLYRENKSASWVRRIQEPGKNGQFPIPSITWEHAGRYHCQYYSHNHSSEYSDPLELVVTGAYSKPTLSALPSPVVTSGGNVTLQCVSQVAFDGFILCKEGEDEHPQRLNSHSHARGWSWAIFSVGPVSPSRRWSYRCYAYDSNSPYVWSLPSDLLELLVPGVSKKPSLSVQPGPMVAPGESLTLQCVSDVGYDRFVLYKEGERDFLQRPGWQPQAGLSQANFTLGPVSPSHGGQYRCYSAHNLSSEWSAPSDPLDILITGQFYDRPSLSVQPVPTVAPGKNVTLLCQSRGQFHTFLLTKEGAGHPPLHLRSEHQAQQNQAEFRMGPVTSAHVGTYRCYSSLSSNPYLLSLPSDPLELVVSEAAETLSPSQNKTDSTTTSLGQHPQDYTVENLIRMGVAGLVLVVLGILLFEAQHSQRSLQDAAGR

LILRA6 on reporter cells = target: T8, LILRA6 on reporter cells (UniProt Q6PI73 24-481); assay: as above
T8 construct: whole, on cells
T8 sequence (Q6PI73 24-481): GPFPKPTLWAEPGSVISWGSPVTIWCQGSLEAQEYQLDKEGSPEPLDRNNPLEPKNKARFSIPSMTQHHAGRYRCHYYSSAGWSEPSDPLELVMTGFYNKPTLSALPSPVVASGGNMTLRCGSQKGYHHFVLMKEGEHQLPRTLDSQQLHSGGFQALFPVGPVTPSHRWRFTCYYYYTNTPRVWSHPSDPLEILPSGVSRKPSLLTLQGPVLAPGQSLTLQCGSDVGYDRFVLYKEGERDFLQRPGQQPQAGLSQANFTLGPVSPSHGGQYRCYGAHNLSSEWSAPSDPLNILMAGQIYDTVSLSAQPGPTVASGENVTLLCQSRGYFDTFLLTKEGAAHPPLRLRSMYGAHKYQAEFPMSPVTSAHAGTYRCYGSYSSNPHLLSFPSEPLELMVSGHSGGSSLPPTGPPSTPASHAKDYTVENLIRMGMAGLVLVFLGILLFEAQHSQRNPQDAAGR

LILRB2 on reporter cells = target: T9, LILRB2 on reporter cells (UniProt Q8N423 22-597); assay: as above
T9 construct: whole, on cells; The construct is not described
T9 sequence (Q8N423 22-597): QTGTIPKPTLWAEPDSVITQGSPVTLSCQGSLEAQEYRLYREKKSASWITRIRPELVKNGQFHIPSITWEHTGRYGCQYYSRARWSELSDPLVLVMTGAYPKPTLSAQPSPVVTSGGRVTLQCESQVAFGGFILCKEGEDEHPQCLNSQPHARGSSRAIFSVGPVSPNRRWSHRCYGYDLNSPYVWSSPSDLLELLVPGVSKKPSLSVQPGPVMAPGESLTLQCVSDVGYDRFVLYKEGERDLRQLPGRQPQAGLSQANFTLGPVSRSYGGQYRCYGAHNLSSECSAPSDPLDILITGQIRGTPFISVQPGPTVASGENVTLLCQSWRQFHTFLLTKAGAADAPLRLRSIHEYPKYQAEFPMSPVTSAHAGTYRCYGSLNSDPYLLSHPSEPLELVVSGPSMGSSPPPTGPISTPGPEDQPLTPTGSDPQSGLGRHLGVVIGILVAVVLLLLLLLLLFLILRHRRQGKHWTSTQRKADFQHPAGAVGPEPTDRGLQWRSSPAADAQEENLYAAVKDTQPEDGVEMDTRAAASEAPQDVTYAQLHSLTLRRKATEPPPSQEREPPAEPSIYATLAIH

LILRA5 on reporter cells = target: T10, LILRA5 on reporter cells (UniProt A6NI73 42-299); assay: as above
T10 construct: whole, on cells
T10 sequence (A6NI73 42-299): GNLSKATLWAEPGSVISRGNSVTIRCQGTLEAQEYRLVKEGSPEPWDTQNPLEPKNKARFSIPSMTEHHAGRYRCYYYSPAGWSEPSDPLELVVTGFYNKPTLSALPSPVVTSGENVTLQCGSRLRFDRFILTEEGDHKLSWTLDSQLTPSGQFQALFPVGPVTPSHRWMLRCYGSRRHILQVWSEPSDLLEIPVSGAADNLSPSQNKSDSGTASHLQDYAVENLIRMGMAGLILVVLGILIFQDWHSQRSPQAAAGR

LILRB4 on reporter cells = target: T11, LILRB4 on reporter cells (UniProt Q8NHJ6 22-448); assay: as above
T11 construct: whole, on cells

LILRB3 on reporter cells = target: T12, LILRB3 on reporter cells (UniProt O75022 24-631, limits assumed); assay: as above
T12 construct: whole, on cells

T2 sequence (Q8N6C8 24-439 limits assumed): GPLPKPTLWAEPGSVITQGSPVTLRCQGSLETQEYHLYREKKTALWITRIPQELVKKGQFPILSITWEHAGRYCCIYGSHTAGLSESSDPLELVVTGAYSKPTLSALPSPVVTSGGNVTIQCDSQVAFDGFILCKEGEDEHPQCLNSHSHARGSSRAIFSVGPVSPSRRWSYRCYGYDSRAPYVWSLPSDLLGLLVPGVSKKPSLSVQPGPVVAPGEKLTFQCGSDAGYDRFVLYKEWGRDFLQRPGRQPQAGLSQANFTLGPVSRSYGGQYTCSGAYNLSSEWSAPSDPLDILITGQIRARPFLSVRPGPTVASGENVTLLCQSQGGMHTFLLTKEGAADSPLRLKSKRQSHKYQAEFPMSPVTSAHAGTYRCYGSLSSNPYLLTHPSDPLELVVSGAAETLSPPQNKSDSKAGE

B1: B1-176 rabbit antibody (antibody, V domains shown)
VH: QSLEESEGGLVKPGGTLTLTCTASGFSFSSSYCMCWVRQAPGKGLELIACIYTDSSGATYYASWAKGRFTISKSSSTTITLQMTSLTAADTATYFCARGWDYEDPGYTDTTYFSLWGPGTLVTVSS
VL: ELDLTQTPSSVEAAVGGTVTIKCQASQTIYTNLAWYQQKPGQPPNLLIYAASTLASGVSSRFKGSGSGTEFTLTISDLECADAATYYCQSYYGSSTTGNGFGGGTEVEIK
notes: Full-length rabbit IgG, kappa; Variable genes were cloned into a rabbit IgG expression vector and expressed in Expi293F cells
LILRB4
  binding result: no binding (tested: 10^3.0 ng/mL (1000 ng/mL))
LILRA3
  binding result: no binding (tested: 10^3.0 ng/mL (1000 ng/mL))
LILRA4 on reporter cells
  percent of cells in the gate: 0.0736%
LILRA1 on reporter cells
  percent of cells in the gate: 0.124%
[1]
  percent of cells in the gate: 99.2%
LILRB5 on reporter cells
  percent of cells in the gate: 0.29%
LILRA2 on reporter cells
  percent of cells in the gate: 0.11%
LILRA6 on reporter cells
  percent of cells in the gate: 0.123%
LILRB2 on reporter cells
  percent of cells in the gate: 0.676%
LILRA5 on reporter cells
  percent of cells in the gate: 0.101%
LILRB4 on reporter cells
  percent of cells in the gate: 0.181%
LILRB3 on reporter cells
  percent of cells in the gate: 0.0698%
